We go through one protein from article PMC9280689, “Resistance to Powdery Mildew in Qingke Involves the Accumulation of Aromatic Phenolamides Through Jasmonate-Mediated Activation of Defense-Related Genes” (Frontiers in Plant Science, 2022).

Common to all, as to experiment: purified protein
Substrate in data set [1]: CC(C)(COP(=O)(O)OP(=O)(O)OC[C@H]1O[C@@H](n2cnc3c(N)ncnc32)[C@H](O)[C@@H]1OP(=O)(O)O)[C@@H](O)C(=O)NCCC(=O)NCCSC(=O)/C=C/c1ccc(O)cc1
The following applies: acyl donor, amine acceptor 100 μM (which amine not told), 10 mM MgCl2, Tris-HCl pH 7.4, 30 °C.

Substrate in data set [2]: CC(C)(COP(=O)(O)OP(=O)(O)OC[C@H]1O[C@@H](n2cnc3c(N)ncnc32)[C@H](O)[C@@H]1OP(=O)(O)O)[C@@H](O)C(=O)NCCC(=O)NCCSC(=O)/C=C/c1ccc(O)c(O)c1
The following applies: acyl donor, amine acceptor 100 μM (which amine not told), 10 mM MgCl2, Tris-HCl pH 7.4, 30 °C.

Substrate in data set [3]: COc1cc(/C=C/C(=O)SCCNC(=O)CCNC(=O)[C@H](O)C(C)(C)COP(=O)(O)OP(=O)(O)OC[C@H]2O[C@@H](n3cnc4c(N)ncnc43)[C@H](O)[C@@H]2OP(=O)(O)O)ccc1O
Particulars: acyl donor, amine acceptor 100 μM (which amine not told), 10 mM MgCl2, Tris-HCl pH 7.4, 30 °C.

Substrate in data set [4]: NCCCCN
Particulars: acyl acceptor, feruloyl-CoA 50 μM as donor, 10 mM MgCl2, Tris-HCl pH 7.4, 30 °C.

B1: HvACT (Hordeum vulgare) (protein)
chain: MKITVHSSKAVKPEYGACGLAPGCTADVVPLTVLDKANFDTYISVIYAFHAPAPPNAVLEAGLGRALVDYREWAGRLGVDASGGRAILLNDAGARFVEATADVALDSVMPLKPTSEVLSLHPSGDDGPEELMLIQVTRFACGSLVVGFTTQHIVSDGRSTGNFFVAWSQATRGAAIDPVPVHDRASFFHPREPLHVEYEHRGVEFKPCEKAHDVVCGADGDEDEVVVNKVHFSREFISKLKAHASAGAPRPCSTLQCVVAHLWRSMTMARGLDGGETTSVAIAVDGRARMSPQVPDGYTGNVILWARPTTTAGELVTRPVKHAVELISREVARINDGYFKSFIDFANSGAVEKERLVATADAADMVLSPNIEVDSWLRIPFYDMDFGGGRPFFFMPSYLPVEGLLILLPSFLGDGSVDAYVPLFSRDMNTFKNCCYSLD
In the case of B1, the Km (commonly the concentration of substrate that gives half-maximal velocity) is 104.9 ± 26.3 µM in the data set “purified protein [1]”, 483.5 ± 63.2 µM in “purified protein [2]”, 161.3 ± 36.5 µM in the data set “purified protein [3]” and 7.11 ± 2.14 µM in the data set “purified protein [4]”. Further, the kcat (usually the maximal rate divided by the concentration of active sites) was found to be 1.04 s⁻¹ in “purified protein [1]”, 0.175 s⁻¹ in “purified protein [2]”, 0.736 s⁻¹ in the data set “purified protein [3]” and 2.51 s⁻¹ in “purified protein [4]”. Also, the kcat/Km – broadly, the turnover number divided by the Michaelis constant – in the data set “purified protein [1]” stood at 10000 M⁻¹ s⁻¹; in “purified protein [3]”, 5000 M⁻¹ s⁻¹; in the data set “purified protein [4]”, 353000 M⁻¹ s⁻¹.
